Test results from patent US9695228B2, “EGFR and c-Met fibronectin type III domain binding molecules” (Janssen Biotech, Inc., priority 2012, dated 2017).
Changes are numbered by the printed parent chain. Numbers in names are those of the source. Read-outs that look alike come from different tables or passages of the source.

B1: A3 M72S: serine mutant of c-Met domain A3 in the context of ECB15, SEQ ID NO: 220 (protein)
chain: LPAPKNLVVSRVTEDSARLSWTAPDAAFDSFWIRYFEFLGSGEAIVLTVPGSERSYDLTGLKPGTEYVVNISGVKGGKISPPLSAIFTT
modifications: c-Met binding FN3 domain
B2: A3 R34S: serine mutant of c-Met domain A3 in the context of ECB15, SEQ ID NO: 221 (protein)
chain: B1 chain with R34S, S72M
modifications: c-Met binding FN3 domain
B3: P114AR7P95-D4: c-Met-binding FN3 domain, SEQ ID NO: 45 (protein)
chain: B1 chain with N70Q, S72L, K78Y, P81I
modifications: c-Met binding FN3 domain
B4: A3 V68S: serine mutant of c-Met domain A3 in the context of ECB15, SEQ ID NO: 215 (protein)
chain: B1 chain with V68S, S72M
modifications: c-Met binding FN3 domain
B5: P114AR7P93-H9: c-Met-binding FN3 domain, SEQ ID NO: 40 (protein)
chain: B1 chain with N70Q, S72I, K78H, P81L
modifications: c-Met binding FN3 domain
B6: P114AR7P92-G8: c-Met-binding FN3 domain, SEQ ID NO: 36 (protein)
chain: B1 chain with W32V, N70Q, S72L, K78Y, P81I
modifications: c-Met binding FN3 domain
B7: A3 W32S: serine mutant of c-Met domain A3 in the context of ECB15, SEQ ID NO: 219 (protein)
chain: B1 chain with W32S, S72M
modifications: c-Met binding FN3 domain
B8: A3 G40S: serine mutant of c-Met domain A3 in the context of ECB15, SEQ ID NO: 213 (protein)
chain: B1 chain with G40S, S72M
modifications: c-Met binding FN3 domain
B9: A3 F36S: serine mutant of c-Met domain A3 in the context of ECB15, SEQ ID NO: 218 (protein)
chain: B1 chain with F36S, S72M
modifications: c-Met binding FN3 domain
B10: P114AR7P94-E5: c-Met-binding FN3 domain, SEQ ID NO: 42 (protein)
chain: B1 chain with V68A, S72M, K78R, I79V, P81V
modifications: c-Met binding FN3 domain
B11: A3 F38S: serine mutant of c-Met domain A3 in the context of ECB15, SEQ ID NO: 222 (protein)
chain: B1 chain with F38S, S72M
modifications: c-Met binding FN3 domain
B12: A3 179S: serine mutant of c-Met domain A3 in the context of ECB15, SEQ ID NO: 223 (protein)
chain: B1 chain with S72M, I79S
modifications: c-Met binding FN3 domain
B13: P114AR7P94-A3: c-Met-binding FN3 domain, SEQ ID NO: 41 (protein)
chain: B1 chain with S72M
modifications: c-Met binding FN3 domain
B14: A3 N70S: serine mutant of c-Met domain A3 in the context of ECB15, SEQ ID NO: 216 (protein)
chain: B1 chain with N70S, S72M
modifications: c-Met binding FN3 domain
B15: A3 L39S: serine mutant of c-Met domain A3 in the context of ECB15, SEQ ID NO: 214 (protein)
chain: B1 chain with L39S, S72M
modifications: c-Met binding FN3 domain
B16: A3 K78S: serine mutant of c-Met domain A3 in the context of ECB15, SEQ ID NO: 212 (protein)
chain: B1 chain with S72M, K78S
modifications: c-Met binding FN3 domain
B17: A3 P81S: serine mutant of c-Met domain A3 in the context of ECB15, SEQ ID NO: 217 (protein)
chain: B1 chain with S72M, P81S
modifications: c-Met binding FN3 domain
B18: P114AR7P93-G8: c-Met-binding FN3 domain, SEQ ID NO: 39 (protein)
chain: B1 chain with G60D, V68G, N70T, S72N, K78R, I79V, P81T
modifications: c-Met binding FN3 domain
B19: P114AR7P92-H5: c-Met-binding FN3 domain, SEQ ID NO: 37 (protein)
chain: B1 chain with F36L, G40L, S41G, N70Q, S72M, K78T, I79V
modifications: c-Met binding FN3 domain

How the values were obtained:
[1] = tested on: H292-HGF human lung cancer xenograft; format: in vivo; conditions: for Tumor Size at day 23: day 23 after tumor inoculation, doses as printed with treatment
Experimental: The H292-HGF cells were maintained in vitro in RPMI1640 medium supplemented with fetal bovine serum (10% v/v), and L-glutamine (2 mM) at 37° C. in an atmosphere of 5% CO2 in air. The cells were routinely subcultured twice weekly by trypsin-EDTA treatment. The cells growing in an exponential growth phase were harvested and counted for tumor inoculation.
Each mouse was inoculated subcutaneously at the right flank region with H292-HGF tumor cells (2×10^6) in 0.1 ml of PBS with cultrex (1:1) for tumor development. The treatments were started when the mean tumor size reached 139 mm^3. […] The date of tumor cell inoculation was denoted as day 0.
Before commencement of treatment, all animals were weighed and the tumor volumes were measured. Since the tumor volume can affect the effectiveness of any given treatment, mice were assigned into groups using randomized block design based upon their tumor volumes. […] The randomized block design was used to assign experimental animals to groups. First, the experimental animals were divided into homogeneous blocks according to their initial tumor volume. Secondly, within each block, randomization of experimental animals to treatments was conducted.
At the time of routine monitoring, the animals were checked for any effects of tumor growth and treatments on normal behavior, such as mobility, visual estimation of food and water consumption, body weight gain/loss (body weights were measured twice weekly), eye/hair matting and any other abnormal effect.
The endpoint was whether tumor growth can be delayed or tumor bearing mice can be cured. Tumor size was measured twice weekly in two dimensions using a caliper, and the volume was expressed in mm^3 using the formula: V=0.5 a×b^2 where a and b are the long and short diameters of the tumor, respectively. The tumor size was then used for calculations of both T-C and T/C values. T-C was calculated with T as the time (in days) required for the mean tumor size of the treatment group to reach 1000 mm^3, and C was the time (in days) for the mean tumor size of the control group to reach the same size. The T/C value (in percent) was an indication of antitumor efficacy; T and C were the mean tumor volume of the treated and control groups, respectively, on a given day. Complete tumor regression (CR) is defined as tumors that are reduced to below the limit of palpation (62.5 mm^3). Partial tumor regression (PR) is defined as tumors that are reduced from initial tumor volume. A minimum duration of CR or PR in 3 or more successive tumor measurements is required for a CP or PR to be considered durable.
Animals for which the body weight loss exceeded 20%, or for which the mean tumor size of the group exceeds 2000 mm^3 were euthanized. The study was terminated after two weeks of observation after the final dose.
Statistical analyses of difference in tumor volume among the groups were evaluated using a one-way ANOVA followed by individual comparisons using Games-Howell (equal variance not assumed). All data were analyzed using SPSS 18.0. p<0.05 was considered to be statistically significant.

[2] = molecular target: T1, c-Met-Fc fusion protein (Homo sapiens, UniProt P08581); assay: c-Met-Fc affinity by surface plasmon resonance (ProteOn); format: binding; conditions: for binding to c-Met (in words): SPR; for Kd / ka / kd: serine mutants of A3 in the context of ECB15, SPR
T1 construct: recombinant EGFR and/or c-Met extracellular domain was further analyzed by surface Plasmon resonance
T1 sequence (P08581 25-932 limits assumed): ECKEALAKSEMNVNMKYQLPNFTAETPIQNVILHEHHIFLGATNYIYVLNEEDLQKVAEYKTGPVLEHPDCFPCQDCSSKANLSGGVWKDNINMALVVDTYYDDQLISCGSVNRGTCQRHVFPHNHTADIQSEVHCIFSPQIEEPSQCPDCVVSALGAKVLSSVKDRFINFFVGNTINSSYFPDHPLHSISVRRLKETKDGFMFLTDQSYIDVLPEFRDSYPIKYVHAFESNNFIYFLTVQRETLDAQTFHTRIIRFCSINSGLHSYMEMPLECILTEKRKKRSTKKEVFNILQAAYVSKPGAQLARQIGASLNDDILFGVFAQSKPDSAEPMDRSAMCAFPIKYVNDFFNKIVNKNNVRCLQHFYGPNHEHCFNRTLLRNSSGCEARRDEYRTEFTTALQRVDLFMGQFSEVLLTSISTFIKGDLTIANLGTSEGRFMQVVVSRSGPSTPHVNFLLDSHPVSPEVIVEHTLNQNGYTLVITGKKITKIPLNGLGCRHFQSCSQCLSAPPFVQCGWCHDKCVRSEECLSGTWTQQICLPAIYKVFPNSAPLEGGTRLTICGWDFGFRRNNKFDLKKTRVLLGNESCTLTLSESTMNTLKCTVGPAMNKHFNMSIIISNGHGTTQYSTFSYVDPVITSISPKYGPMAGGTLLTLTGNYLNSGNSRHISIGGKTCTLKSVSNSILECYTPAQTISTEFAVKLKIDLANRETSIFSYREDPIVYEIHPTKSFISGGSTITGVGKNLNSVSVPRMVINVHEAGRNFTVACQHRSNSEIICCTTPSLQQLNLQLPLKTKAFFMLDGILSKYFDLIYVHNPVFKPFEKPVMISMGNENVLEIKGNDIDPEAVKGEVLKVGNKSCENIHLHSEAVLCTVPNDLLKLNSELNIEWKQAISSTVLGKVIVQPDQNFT

[3] = Differential scanning calorimetry in PBS (thermal stability); format: physicochemical; conditions: DSC in PBS, c-Met-binding FN3 domains

Row | Molecule | Thermal Stability (Tm) [3] | ka [2] | kd [2] | further results
1 | C[C@@H](Oc1cc(-c2cnn(C3CCNCC3)c2)cnc1N)c1c(Cl)ccc(F)c1Cl [Crizotinib, crizotinib, reference compound] | – | – | – | T-C at 1000 mm^3 (tumor growth delay) ([1]; compared with the vehicle group): -1 days; Tumor volume ([1]; day 7 (start of treatment), mean ± SEM, doses as in column head): 140 ± 9 mm^3; Tumor volume ([1]; day 9, mean ± SEM): 217 ± 20 mm^3; Tumor volume ([1]; day 13, mean ± SEM): 547 ± 43 mm^3; Tumor volume ([1]; day 16, mean ± SEM): 914 ± 92 mm^3; Tumor volume ([1]; day 20, mean ± SEM): 1438 ± 239 mm^3; T/C ([1]; day 23): 120%; Tumor volume ([1]; day 23, mean ± SEM): 2102 ± 298 mm^3; Tumor Size at day 23 [1]: 2102 ± 298 mm^3; Tumor Size at day 23 ([1]; listed as crizotinib): 2,102 mm^3; antitumor activity (in words) ([1]; doses as in Table 14): no antitumor activity; tolerability / body weight loss (in words) ([1]; doses as in Table 14): More severe body weight loss
2 | C#Cc1cccc(Nc2ncnc3cc(OCCOC)c(OCCOC)cc23)c1 [Erlotinib, erlotinib, reference compound] | – | – | – | tolerability / body weight loss (in words) ([1]; doses as in Table 14): More severe body weight loss
3 | B1 | – | – | – | binding to c-Met (in words) [2]: No binding was measurable; Kd [2]: > 1000 nM
4 | B2 | – | – | – | binding to c-Met (in words) [2]: No binding was measurable; Kd [2]: > 1000 nM
5 | B3 | 85.3 C. | – | – | –
6 | B4 | – | 329000 M⁻¹ s⁻¹ | 0.0012 s⁻¹ | –
7 | B5 | 88.2 C. | – | – | –
8 | B6 | 90.9 C. | – | – | –
9 | B7 | – | 289000 M⁻¹ s⁻¹ | 0.0086 s⁻¹ | –
10 | B8 | – | 185000 M⁻¹ s⁻¹ | 0.00032 s⁻¹ | –
11 | B9 | – | 188000 M⁻¹ s⁻¹ | 0.00512 s⁻¹ | –
12 | B10 | 80 C. | – | – | –
13 | B11 | – | 45100 M⁻¹ s⁻¹ | 0.0323 s⁻¹ | –
14 | B12 | – | – | – | binding to c-Met (in words) [2]: No binding was measurable; Kd [2]: > 1000 nM
15 | B13 | 86.2 C. | – | – | –
16 | B14 | – | 425000 M⁻¹ s⁻¹ | 0.00249 s⁻¹ | –
17 | B15 | – | 475000 M⁻¹ s⁻¹ | 0.00127 s⁻¹ | –
18 | B16 | – | 440000 M⁻¹ s⁻¹ | 0.00015 s⁻¹ | –
19 | B17 | – | 321000 M⁻¹ s⁻¹ | 0.000536 s⁻¹ | –
20 | B18 | 76.8 C. | – | – | –
21 | B19 | 87 C. | – | – | –
